From the RNAGym collection of RNA variant scans (doi:10.1093/nar/gkz1192)

B1: CPEB3 Ribozyme (parent)
chain: UAACAGGGGGCCACAGCAGAAGCGUUCACGUCGCAGCCCCUGUCAGAUUCUGGUGAAUCUGCGAAUUCUGCUGUAUAUCUC

Variants of: B1
Experiment: self-cleavage, relative activity (ratio to wild type); higher = more cleavage; in vitro, sequencing
In short: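 Relative activity compares each variant's cleaved/total read fraction with that of the unmutated ribozyme. To get these fractions, barcoded CPEB3 ribozyme libraries from rounds of error-prone PCR were transcribed with T7 RNA polymerase for 5 hours at 37°C and then given 15 min of DNase I treatment before EDTA was added. The RNAs were reverse transcribed with template switching and sequenced on Illumina, and DNA sequencing linked barcodes to variants. A minimum of 5 reads applied, and three batches were averaged.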

Variant	self-cleavage
UAACAGGGGGCCCCAGCAGAAGCGUUCACGUCGCAGCCCCUGUCAGAUUCUGGUGAAUCUGCGGAUUCUGCUGUAUAUCUC	0.93
UAACAGGGGGCCCCAGCAGAAGCGUUCACGUCGCAGCCCCUGUCAGAUUCUGGUGAAUCUGCGUAUUCUGCUGUAUAUCUC	0.4
UAACAGGGGGCCCCAGCAGAAGCGUUCACGUCGCAGCCCCUGUCAGAUUCUGGUGAAUCUGCGAGUUCUGCUGUAUAUCUC	0.32
UAACAGGGGGCCCCAGCAGAAGCGUUCACGUCGCAGCCCCUGUCAGAUUCUGGUGAAUCUGCGAAUUCUGCUGUGUAUCUC	1.12
UAACAGGGGGCCCCAGCAGAAGCGUUCACGUCGCAGCCCCUGUCAGAUUCUGGUGAAUCUGCGAAUUCUGCUGUUUAUCUC	0.99
UAACAGGGGGCCCCAGCAGAAGCGUUCACGUCGCAGCCCCUGUCAGAUUCUGGUGAAUCUGCGAAUUCUGCUGUAUGUCUC	1.12
UAACAGGGGGCCCGAGCAGAAGCGUUCACGUCGCAGCCCCUGUCAGAUUCUGGUGAAUCUGCGAAUUCUGCUGUAUAUCUC	0.56
UAACAGGGGGCCCCAGUAGAAGCGUUCACGUCGCAGCCCCUGUCAGAUUCUGGUGAAUCUGCGAAUUCUGCUGUAUAUCUC	0.53
UAACAGGGGGCCCCAGCAGAAGCGUUCAGGUCGCAGCCCCUGUCAGAUUCUGGUGAAUCUGCGAAUUCUGCUGUAUAUCUC	0.3
UAACAGGGGGCCCCAGCAGAAGCGUUCACGUAGCAGCCCCUGUCAGAUUCUGGUGAAUCUGCGAAUUCUGCUGUAUAUCUC	0.29
UAACAGGGGGCCCCAGCAGAAGCGUUCACGUCGCAGCACCUGUCAGAUUCUGGUGAAUCUGCGAAUUCUGCUGUAUAUCUC	0.33
UAACAGGGGGCCCCAGCAGAAGCGUUCACGUCGCAGCUCCUGUCAGAUUCUGGUGAAUCUGCGAAUUCUGCUGUAUAUCUC	0.93
UAACAGGGGGCCCCAGCAGAAGCGUUCACGUCGCAGCCCAUGUCAGAUUCUGGUGAAUCUGCGAAUUCUGCUGUAUAUCUC	0.26
UAACAGGGGGCCCCAGCAGAAGCGUUCACGUCGCAGCCCCUGUAAGAUUCUGGUGAAUCUGCGAAUUCUGCUGUAUAUCUC	0.42
UAACAGGGGGCCCCAGCAGAAGCGUUCACGUCGCAGCCCCUGUUAGAUUCUGGUGAAUCUGCGAAUUCUGCUGUAUAUCUC	0.59
UAACAGGGGGCCCCAGCAGAAGCGUUCACGUCGCAGCCCCUGUCAGAUUAUGGUGAAUCUGCGAAUUCUGCUGUAUAUCUC	0.87
UAACAGGGGGCCCCAGCAGAAGCGUUCACGUCGCAGCCCCUGUCAGAUUCUGGUGAAUCUGCGAAUUUUGCUGUAUAUCUC	1.07

Variant	self-cleavage
UAACAGGGGGCCCCAGCAGAAGCGUUCACGUCGCAGCCCCUGUCAGAUUCUGGUGAAUCUGCGAAUUCUGUUGUAUAUCUC	0.33
UAACAGGGGGCCCCAGCAGAAGCGUUCACGUCGCAGCCCCUGUCAGAUUCUGGUGAAUCUGCGAAUUCUGCUGUAUAUUUC	1.11
UAACAGGGGGCCCCAGCAGAAACGUUCACGUCGCAGCCCCUGUCAGAUUCUGGUGAAUCUGCGAAUUCUGCUGUAUAUCUC	0.19
UAACAGGGGGCCCCAGCAGAAGCGUUCACAUCGCAGCCCCUGUCAGAUUCUGGUGAAUCUGCGAAUUCUGCUGUAUAUCUC	0.25
UAACAGGGGGCCCCAGCAGAAGCGUUCACUUCGCAGCCCCUGUCAGAUUCUGGUGAAUCUGCGAAUUCUGCUGUAUAUCUC	0.12
UAACAGGGGGCCCCAGCAGAAGCGUUCACGUCGCAACCCCUGUCAGAUUCUGGUGAAUCUGCGAAUUCUGCUGUAUAUCUC	0.26
UAACAGGGGGCCCCAGCAGAAGCGUUCACGUCGCACCCCCUGUCAGAUUCUGGUGAAUCUGCGAAUUCUGCUGUAUAUCUC	0.35
UAACAGGGGGCCCCAGCAGAAGCGUUCACGUCGCAGCCCCUGUCACAUUCUGGUGAAUCUGCGAAUUCUGCUGUAUAUCUC	0.18
UAACAGGGGGCCCCAGCAGAAGCGUUCACGUCGCAGCCCCUGUCAGAUUCUGGUGAAUCUGCUAAUUCUGCUGUAUAUCUC	0.97
UAACAGGGGGCCCCAGCAGAAGCGUUCACGUCGCAGCCCCUGUCAGAUUCUGGUGAAUCUGCGAAUUCUACUGUAUAUCUC	0.44
UAACAGGGGGCCCCAGCAGAAGCGUUCACGUCGCAGCCCCUGUCAGAUUCUGGUGAAUCUGCGAAUUCUGCUCUAUAUCUC	0.48
UAACAGGGGGCCCCAGCAGAAGCGAUCACGUCGCAGCCCCUGUCAGAUUCUGGUGAAUCUGCGAAUUCUGCUGUAUAUCUC	0.34
UAACAGGGGGCCCCAGCAGAAGCGCUCACGUCGCAGCCCCUGUCAGAUUCUGGUGAAUCUGCGAAUUCUGCUGUAUAUCUC	0.31
UAACAGGGGGCCCCAGCAGAAGCGUACACGUCGCAGCCCCUGUCAGAUUCUGGUGAAUCUGCGAAUUCUGCUGUAUAUCUC	0.61
UAACAGGGGGCCCCAGCAGAAGCGUCCACGUCGCAGCCCCUGUCAGAUUCUGGUGAAUCUGCGAAUUCUGCUGUAUAUCUC	0.51
UAACAGGGGGCCCCAGCAGAAGCGUUCACGACGCAGCCCCUGUCAGAUUCUGGUGAAUCUGCGAAUUCUGCUGUAUAUCUC	0.38
UAACAGGGGGCCCCAGCAGAAGCGUUCACGCCGCAGCCCCUGUCAGAUUCUGGUGAAUCUGCGAAUUCUGCUGUAUAUCUC	0.66
